Here are results for one molecule from patent publication US20210238296A1 (Genmab, published 2021).

Assay [1] addresses T1, FcRnECDHis-B2M-BIO (recombinant biotinylated extracellular domain of human FcRn as dimer with … (human, UniProt P55899 24-297; P61769 21-119, biotinylated).
T1 construct: also called FcRnhsECDHis-B2M-BIO
Nature of the assay: FcRn ELISA at pH 6.0. On the technique in general: In an ELISA, binding on a coated surface is turned into a signal by an enzyme label.

Another assay deals with T2, CD20 (human, UniProt P11836 1-297).
T2 construct: whole, on cells; cell surface target of IgG1-11B8; also called human CD20
T2 sequence (looked up): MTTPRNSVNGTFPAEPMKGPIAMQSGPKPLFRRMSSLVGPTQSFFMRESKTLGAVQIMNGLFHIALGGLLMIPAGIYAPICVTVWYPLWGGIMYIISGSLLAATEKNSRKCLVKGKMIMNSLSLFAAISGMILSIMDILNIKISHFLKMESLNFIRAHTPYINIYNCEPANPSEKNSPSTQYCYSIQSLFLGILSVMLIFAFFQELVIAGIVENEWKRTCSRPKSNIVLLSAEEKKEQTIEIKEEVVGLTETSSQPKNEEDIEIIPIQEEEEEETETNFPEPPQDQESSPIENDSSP
Nature of the assay: flow cytometry on Wien 133 and Raji cells (FIG. 7).

T1 sequence (P55899 other isoform, or with tags, fused parts or gaps, chain 1 of 2): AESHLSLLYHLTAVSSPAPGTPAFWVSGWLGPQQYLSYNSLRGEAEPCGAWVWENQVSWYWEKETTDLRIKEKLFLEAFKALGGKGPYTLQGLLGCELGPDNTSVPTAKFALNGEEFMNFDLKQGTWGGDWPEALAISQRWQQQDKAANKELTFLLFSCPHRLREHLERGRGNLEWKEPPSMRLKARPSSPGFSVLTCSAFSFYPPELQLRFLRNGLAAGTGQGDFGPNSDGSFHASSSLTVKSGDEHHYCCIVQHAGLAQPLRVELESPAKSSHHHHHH
T1 sequence (P61769 21-119, chain 2 of 2): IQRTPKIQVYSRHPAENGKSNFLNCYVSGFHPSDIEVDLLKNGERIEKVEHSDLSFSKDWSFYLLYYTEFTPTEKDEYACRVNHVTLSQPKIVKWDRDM

B1: IgG1-b12 (antibody)
heavy: not shown
light: EIVLTQSPGTLSLSPGERATFSCRSSHSIRSRRVAWYQHKPGQAPRLVIHGVSNRASGISDRFSGSGSGTDFTLTITRVEPEDFALYYCQVYGASSYTFGQGTKLERKRTVAAPSVFIFPPSDEQLKSGTASVVCLLNNFYPREAKVQWKVDNALQSGNSQESVTEQDSKDSTYSLSSTLTLSKADYEKHKVYACEVTHQGLSSPVTKSFNRGEC
notes: HIV gp120-specific negative control with wild type Fc; also called human IgG1 antibody b12
In the case of B1, the binding result in assay [1] is “binds”; in the assay with CD20, “no binding”.
